Laboratory results reported in PMC3799952 (Biochemistry, 2013).
Numbering of substitutions follows the chain as printed. Names may count otherwise.

B1: amino terminus-truncated recombinant human aromatase, wild type (enzyme)
chain: MAKKTSSKGRNYEGTSSIPGPGYCMGIGPLISHGRFLWMGIGSACNYYNRVYGEFMRVWISGEETLIISKSSSMFHIMKHNHYSSRFGSKLGLQCIGMHEKGIIFNNNPELWKTTRPFFMKALSGPGLVRMVTVCAESLKTHLDRLEEVTNESGYVDVLTLLRRVMLDTSNTLFLRIPLDESAIVVKIQGYFDAWQALLIKPDIFFKISWLYKKYEKSVKDLKDAIEVLIAEKRRRISTEEKLEECMDFATELILAEKRGDLTRENVNQCILEMLIAAPDTMSVSLFFMLFLIAKHPNVEEAIIKEIQTVIGERDIKIDDIQKLKVMENFIYESMRYQPVVDLVMRKALEDDVIDGYPVKKGTNIILNIGRMHRLEFFPKPNEFTLENFAKNVPYRYFQPFGFGPRGCAGKYIAMVMMKAILVTLLRRFHVKTLQGQCVESIQKIHDLSLHPDETKNMLEMIFTPRNSDRCLEH
B2: rArom E181A (enzyme, human)
chain: B1 chain with E152A
B3: rArom E181K (enzyme, human)
chain: B1 chain with E152K

Target: the molecule itself
Experiment: native gel or EMSA

Row | Protein | stoichiometry N
1 | B1 | 5
2 | B2 | 2
3 | B3 | 2
